Measurements from paper doi:10.1101/2023.11.17.567546.

Assays:
Hfq [1] = molecular target: Hfq (UniProt P0A6X3); experiment: lead acetate footprinting
Hfq [2] = molecular target: Hfq (UniProt P0A6X3); experiment: EMSA

Hfq, sequence (P0A6X3 whole entry): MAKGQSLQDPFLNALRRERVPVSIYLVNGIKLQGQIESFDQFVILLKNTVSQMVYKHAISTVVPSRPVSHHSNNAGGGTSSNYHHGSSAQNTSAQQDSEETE

Q: Which binding (Hfq [1]) does the source give for “GCGCCAACGUCGCAUCUGGUUCUCAUCAUCGCGUAAUAUUGAUGAAACCUGCGGCAUCCUUCUUCUAUUGUGGAUGCUUUACAAUGAUUAAAAAAGCUUCGCUGCUGACGGCGUGUUCCGUCACGGCAUUUUCCGCUUGGGCACAGGAUACCAGCCCGGAUACUCUCGUCGUUACUGCUAACCGUUUUGAACAGCCGCGCAGCACUGUGCUUGCACCAACCACCGUUGUGACCCGUCAGGAUAU [btuB mRNA -80 to +161]” here?
A: Its binding is “binds”.

Q: What about the binding (Hfq [2]) of the same sequence?
A: Its binding is “binds”.
